Source: US20040053865A1 (UNITED STATES OF AMERICA AS REPRESENTED BY THE SECRETARY OF …, published 2004)

T1: Ebola Ivory Coast virus glycoprotein (GP) (Ebola virus, Ivory Coast strain, UniProt Q66810 33-676)
T1 sequence: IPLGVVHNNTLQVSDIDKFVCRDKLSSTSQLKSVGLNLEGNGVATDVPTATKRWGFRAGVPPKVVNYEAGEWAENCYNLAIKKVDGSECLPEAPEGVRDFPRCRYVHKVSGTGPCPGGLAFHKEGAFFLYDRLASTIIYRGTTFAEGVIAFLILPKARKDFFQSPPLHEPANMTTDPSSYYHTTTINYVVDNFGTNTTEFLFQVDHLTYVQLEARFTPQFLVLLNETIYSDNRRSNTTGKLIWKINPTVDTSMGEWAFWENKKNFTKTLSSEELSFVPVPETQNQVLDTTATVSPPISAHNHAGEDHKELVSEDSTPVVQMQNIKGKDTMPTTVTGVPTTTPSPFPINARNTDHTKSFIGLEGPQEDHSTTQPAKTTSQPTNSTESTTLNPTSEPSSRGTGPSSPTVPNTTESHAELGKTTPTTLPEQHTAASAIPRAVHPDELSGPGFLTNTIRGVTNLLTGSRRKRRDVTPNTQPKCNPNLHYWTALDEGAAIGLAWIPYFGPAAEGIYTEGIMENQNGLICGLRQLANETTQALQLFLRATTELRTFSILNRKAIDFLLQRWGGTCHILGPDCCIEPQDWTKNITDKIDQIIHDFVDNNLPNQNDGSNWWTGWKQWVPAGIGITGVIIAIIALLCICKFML

T2: Ebola Sudan (Boniface) virus glycoprotein (GP) (Ebola virus, Sudan strain (isolate …, UniProt Q66814 33-676))
T2 sequence: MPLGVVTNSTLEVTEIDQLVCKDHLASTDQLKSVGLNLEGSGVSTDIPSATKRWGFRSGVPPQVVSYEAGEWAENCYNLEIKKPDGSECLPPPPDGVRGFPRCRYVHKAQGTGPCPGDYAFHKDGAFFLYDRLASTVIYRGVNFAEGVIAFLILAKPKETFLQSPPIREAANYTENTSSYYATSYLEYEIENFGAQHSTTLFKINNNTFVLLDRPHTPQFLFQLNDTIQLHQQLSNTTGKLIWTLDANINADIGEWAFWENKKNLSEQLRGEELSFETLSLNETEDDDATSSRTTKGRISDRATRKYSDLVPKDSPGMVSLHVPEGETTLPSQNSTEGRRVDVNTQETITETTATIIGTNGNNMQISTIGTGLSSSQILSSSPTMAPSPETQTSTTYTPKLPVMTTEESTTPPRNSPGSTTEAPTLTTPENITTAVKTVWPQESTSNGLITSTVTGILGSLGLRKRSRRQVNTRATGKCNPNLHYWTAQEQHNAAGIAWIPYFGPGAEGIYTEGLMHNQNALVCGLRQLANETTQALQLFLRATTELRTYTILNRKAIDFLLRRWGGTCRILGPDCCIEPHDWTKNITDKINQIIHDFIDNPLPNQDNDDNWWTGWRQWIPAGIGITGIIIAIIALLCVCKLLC

T3: sGP (secreted glycoprotein) from EboGP-VRP-infected cells (Ebola virus, Zaire strain, Mayinga …, UniProt P60170 33-324)
T3 sequence: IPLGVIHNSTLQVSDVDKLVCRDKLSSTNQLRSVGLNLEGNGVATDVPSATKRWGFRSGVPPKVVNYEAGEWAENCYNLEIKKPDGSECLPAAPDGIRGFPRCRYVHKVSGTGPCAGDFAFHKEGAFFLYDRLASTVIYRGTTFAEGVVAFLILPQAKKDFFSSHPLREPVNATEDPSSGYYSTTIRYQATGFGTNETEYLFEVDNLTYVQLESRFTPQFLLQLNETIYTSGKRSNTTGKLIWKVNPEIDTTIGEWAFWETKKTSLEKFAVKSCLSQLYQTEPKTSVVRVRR

T4: Ebola Zaire 1976 (Mayinga isolate) virus glycoprotein (GP) (Ebola virus, Zaire 1976 strain (isolate …, UniProt Q05320 33-676))
T4 sequence: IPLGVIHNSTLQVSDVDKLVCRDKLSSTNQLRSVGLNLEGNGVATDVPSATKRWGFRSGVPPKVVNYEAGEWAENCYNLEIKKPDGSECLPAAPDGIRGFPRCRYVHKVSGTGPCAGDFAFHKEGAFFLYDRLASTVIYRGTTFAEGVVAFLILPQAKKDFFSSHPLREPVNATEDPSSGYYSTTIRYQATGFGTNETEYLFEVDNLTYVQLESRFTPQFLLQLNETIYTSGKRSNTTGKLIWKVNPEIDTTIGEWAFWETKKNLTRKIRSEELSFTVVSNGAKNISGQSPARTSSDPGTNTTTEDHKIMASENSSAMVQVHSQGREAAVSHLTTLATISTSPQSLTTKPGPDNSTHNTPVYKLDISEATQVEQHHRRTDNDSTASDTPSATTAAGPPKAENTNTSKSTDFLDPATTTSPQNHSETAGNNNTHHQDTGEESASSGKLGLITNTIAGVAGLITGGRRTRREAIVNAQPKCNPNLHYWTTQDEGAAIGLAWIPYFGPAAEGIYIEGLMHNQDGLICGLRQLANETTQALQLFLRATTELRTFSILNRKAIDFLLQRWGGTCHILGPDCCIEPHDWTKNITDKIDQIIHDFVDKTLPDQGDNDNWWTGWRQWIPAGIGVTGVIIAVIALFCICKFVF


Experiments:
[1] = target: T1, Ebola Ivory Coast virus glycoprotein …; assay: ELISA on irradiated sucrose-purified virions
[2] = target: T2, Ebola Sudan (Boniface) virus …; assay: ELISA on irradiated sucrose-purified virions
[3] = target: T3, sGP (secreted glycoprotein) from …; assay: radioimmunoprecipitation from infected-cell supernatants
[4] = target: T4, Ebola Zaire 1976 (Mayinga isolate) …; assay: ELISA on virions

Binder | binding result [1] | binding result [2] | binding result [3] | binding result [4]
MAb EGP 13F6-1-2 (antibody, V domains shown) VH: EVQVVESGGGLVKPGGSLKLSCAASGFAFSSYDMSWVRQTPEKRLEWVAYISRGGGYTYYPDTVKGRFTISRDNAKNTLYLQMSSLKSEDTAMYYCSRHIYYGSSHYYAMDYWGQGTSVTVSS VL: QLVLTQSSSASFSLGASAKLTCTLSRQHSTYTIEWYQQQPLKPPRYVMELKKDGSHSTGDGIPDRFSGSSSGADRYLSISNIQPEDEAIYICGVGDTIKEQFVYVFGGGTKVTVLG | no binding | no binding | no binding | 
MAb EGP 6D8-1-2 (antibody, V domains shown) VH: DVKLLESGGGLVQPGGSLKLSCAASGFDFSRYWMSWVRQAPGKGLEWIGEINPDSSTINYTPSLKDKFIISRDNAKNTLYLQMSKVRSEDTALYYCTRQGYGYNYWGQGTTLIVSS VL: DVLLTQIPLSLPVSLGDQASISCRSSQSIVHSNGNTYLEWYLQKPGQSPKLLIYKASNRFSGVPDRFSGSGSGTDFTLKINRVEAEDLGVYYCLQGSHVPSTFGGGTKLEIKR | no binding | no binding | no binding | binds
